T1: rhOX40-Avi-His (human, UniProt P43489 29-214, limits assumed)
T1 construct: also called OX40抗原; 人源OX40
T1 sequence (looked up): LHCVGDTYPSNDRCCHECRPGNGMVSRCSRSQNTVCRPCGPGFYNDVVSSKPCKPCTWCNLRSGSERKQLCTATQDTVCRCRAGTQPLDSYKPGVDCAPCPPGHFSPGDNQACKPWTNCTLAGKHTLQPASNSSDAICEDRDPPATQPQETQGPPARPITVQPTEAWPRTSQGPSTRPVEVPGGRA

T2: 鼠源OX40 (mouse, UniProt P47741 20-211, limits assumed)
T2 construct: also called 鼠源OX40抗原
T2 sequence (looked up): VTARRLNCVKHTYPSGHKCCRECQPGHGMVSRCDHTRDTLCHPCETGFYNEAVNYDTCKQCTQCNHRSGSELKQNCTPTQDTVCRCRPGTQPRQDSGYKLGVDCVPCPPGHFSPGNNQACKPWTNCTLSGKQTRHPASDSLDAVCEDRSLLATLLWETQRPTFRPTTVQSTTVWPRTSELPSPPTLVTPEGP

B1: L52-2D7H232 (bispecific antibody, human IgG1, kappa)
light: DIQMTQSPSTLSASVGDRVTITCQSSQNVYSNNRLSWYQQKPGKAPKLLIYWTSFLASGVPSRFSGSGSGTEFTLTISSLQPDDFATYYCAGGYSGNLYTFGQGTKLEIKRTVAAPSVFIFPPSDEQLKSGTASVVCLLNNFYPREAKVQWKVDNALQSGNSQESVTEQDSKDSTYSLSSTLTLSKADYEKHKVYACEVTHQGLSSPVTKSFNRGEC
heavy: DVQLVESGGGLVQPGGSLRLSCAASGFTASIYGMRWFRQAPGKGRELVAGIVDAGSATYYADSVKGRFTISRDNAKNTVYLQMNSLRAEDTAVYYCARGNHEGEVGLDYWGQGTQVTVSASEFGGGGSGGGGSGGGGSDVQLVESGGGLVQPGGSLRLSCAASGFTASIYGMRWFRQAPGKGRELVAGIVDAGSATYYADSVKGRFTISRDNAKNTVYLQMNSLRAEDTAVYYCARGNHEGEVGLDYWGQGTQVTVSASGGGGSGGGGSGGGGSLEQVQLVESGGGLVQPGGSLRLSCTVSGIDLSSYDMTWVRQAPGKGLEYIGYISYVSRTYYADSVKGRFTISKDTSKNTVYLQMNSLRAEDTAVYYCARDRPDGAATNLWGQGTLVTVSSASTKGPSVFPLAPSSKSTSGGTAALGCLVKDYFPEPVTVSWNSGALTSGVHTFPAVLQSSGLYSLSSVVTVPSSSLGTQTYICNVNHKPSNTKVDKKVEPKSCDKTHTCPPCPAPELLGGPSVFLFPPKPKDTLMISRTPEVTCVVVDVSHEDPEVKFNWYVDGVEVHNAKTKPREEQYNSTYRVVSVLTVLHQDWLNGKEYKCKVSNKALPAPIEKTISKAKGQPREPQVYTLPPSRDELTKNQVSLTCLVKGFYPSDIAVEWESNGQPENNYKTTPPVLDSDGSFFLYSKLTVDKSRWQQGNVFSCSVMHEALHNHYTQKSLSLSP
notes: Symmetric bispecific: two tandem anti-OX40 nanobodies D7 joined to the heavy chain of the anti-PD-L1 IgG1 L52H232; also called 抗PD-L1与OX40双特异性抗体; 优选抗体L52-2D7H232
B2: L52H232-D7 (bispecific antibody, human IgG1, kappa, N297A)
light: B1 light
heavy: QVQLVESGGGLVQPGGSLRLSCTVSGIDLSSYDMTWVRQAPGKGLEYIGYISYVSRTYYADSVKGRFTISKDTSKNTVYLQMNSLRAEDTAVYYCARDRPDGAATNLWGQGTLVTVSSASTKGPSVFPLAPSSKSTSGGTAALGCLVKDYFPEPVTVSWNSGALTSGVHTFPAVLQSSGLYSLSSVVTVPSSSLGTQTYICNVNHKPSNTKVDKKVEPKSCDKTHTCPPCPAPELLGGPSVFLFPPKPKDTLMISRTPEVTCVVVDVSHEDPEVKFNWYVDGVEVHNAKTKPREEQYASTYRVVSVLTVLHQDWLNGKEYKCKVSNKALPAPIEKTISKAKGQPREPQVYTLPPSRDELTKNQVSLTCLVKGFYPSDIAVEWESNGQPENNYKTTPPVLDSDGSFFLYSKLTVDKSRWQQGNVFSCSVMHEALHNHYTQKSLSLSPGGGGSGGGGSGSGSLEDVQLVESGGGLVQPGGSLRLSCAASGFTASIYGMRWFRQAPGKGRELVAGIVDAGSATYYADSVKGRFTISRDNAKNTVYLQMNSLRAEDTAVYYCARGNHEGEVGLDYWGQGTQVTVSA
notes: Symmetric bispecific: anti-OX40 nanobody D7 joined to the heavy chain of the anti-PD-L1 IgG1 L52H232; also called 抗PD-L1与OX40双特异性抗体
B3: L52-D7H232 (bispecific antibody, human IgG1, kappa, N297A)
light: B1 light
heavy: DVQLVESGGGLVQPGGSLRLSCAASGFTASIYGMRWFRQAPGKGRELVAGIVDAGSATYYADSVKGRFTISRDNAKNTVYLQMNSLRAEDTAVYYCARGNHEGEVGLDYWGQGTQVTVSASEFGGGGSGGGGSGGGGSLEQVQLVESGGGLVQPGGSLRLSCTVSGIDLSSYDMTWVRQAPGKGLEYIGYISYVSRTYYADSVKGRFTISKDTSKNTVYLQMNSLRAEDTAVYYCARDRPDGAATNLWGQGTLVTVSSASTKGPSVFPLAPSSKSTSGGTAALGCLVKDYFPEPVTVSWNSGALTSGVHTFPAVLQSSGLYSLSSVVTVPSSSLGTQTYICNVNHKPSNTKVDKKVEPKSCDKTHTCPPCPAPEDEGGPSVFLFPPKPKDTLMISRTPEVTCVVVDVSHEDPEVKFNWYVDGVEVHNAKTKPREEQYASTYRVVSVLTVLHQDWLNGKEYKCKVSNKALPAPIEKTISKAKGQPREPQVYTLPPCRDELTKNQVSLWCLVKGFYPSDIAVEWESNGQPENNYKTTPPVLDSDGSFFLYSKLTVDKSRWQQGNVFSCSVMHEALHNHYTQKSLSLSP
notes: Symmetric bispecific: anti-OX40 nanobody D7 joined to the heavy chain of the anti-PD-L1 IgG1 L52H232; also called 抗PD-L1与OX40双特异性抗体; 优选抗体L52-D7H232
B4: L52H232-2D7 (bispecific antibody, human IgG1, kappa, N297A)
light: B1 light
heavy: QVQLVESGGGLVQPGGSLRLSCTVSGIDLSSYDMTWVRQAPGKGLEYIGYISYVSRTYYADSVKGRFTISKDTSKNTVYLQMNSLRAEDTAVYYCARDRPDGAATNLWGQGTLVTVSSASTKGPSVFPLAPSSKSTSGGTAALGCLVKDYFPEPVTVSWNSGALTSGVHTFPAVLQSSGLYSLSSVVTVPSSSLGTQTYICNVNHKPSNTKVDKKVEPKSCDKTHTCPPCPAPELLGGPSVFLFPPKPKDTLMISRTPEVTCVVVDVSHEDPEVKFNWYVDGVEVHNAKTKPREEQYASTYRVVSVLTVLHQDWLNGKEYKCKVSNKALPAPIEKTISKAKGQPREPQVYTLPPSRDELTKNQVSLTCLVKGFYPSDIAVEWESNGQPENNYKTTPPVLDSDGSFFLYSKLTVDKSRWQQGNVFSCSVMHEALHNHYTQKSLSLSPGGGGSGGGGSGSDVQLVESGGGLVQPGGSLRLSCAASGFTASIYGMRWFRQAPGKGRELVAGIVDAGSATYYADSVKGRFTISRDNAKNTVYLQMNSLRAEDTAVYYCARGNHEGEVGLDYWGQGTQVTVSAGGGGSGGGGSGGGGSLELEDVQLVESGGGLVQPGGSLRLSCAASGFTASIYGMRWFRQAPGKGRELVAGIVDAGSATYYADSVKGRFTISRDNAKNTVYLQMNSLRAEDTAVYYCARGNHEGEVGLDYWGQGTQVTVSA
notes: to be rechecked; also called 抗PD-L1与OX40双特异性抗体

How the values were obtained:
rhOX40-Avi-His = biological target: T1, rhOX40-Avi-His; assay: ELISA, human OX40 coated
鼠源OX40 = biological target: T2, 鼠源OX40; assay: ELISA, mouse OX40 coated

Binder	binding result (rhOX40-Avi-His)	binding result (鼠源OX40)
B1	binds	no binding
B2	binds	no binding
B3	–	no binding
B4	binds	no binding
